These results are taken from paper PMC4254802.

What all share (experiment): cross-linking
The target in assay [1] is TACE-B/ADAM10cyto (truncated human TACE with the cytoplasmic domain of ADAM10), Flag-tagged (human) (UniProt O14672).
The target in assay [2] is endogenous ADAM10 of Cα cells (Chinese hamster (endogenous in Cα/CHO cells)).
In assay [3] the target is endogenous TACE of Cα cells (CHO cells that express TGF-α) (Chinese hamster (endogenous in Cα/CHO cells)).

Turning to “TACE-B/ADAM10cyto (truncated human TACE with the cytoplasmic domain of ADAM10), Flag-tagged (from UniProt O14672 694-748)”, in assay [1], the stoichiometry N was determined as 2.
In turn, endogenous ADAM10 of Cα cells (enzyme) displayed a stoichiometry N in assay [2] of 2.
“endogenous TACE of Cα cells (CHO cells that express TGF-α) (enzyme)” gave a stoichiometry N in assay [3] of 2.

Broadly, the stoichiometry N is the number of molecules, sites or subunits per partner or assembly.
